From PMC7612745 (Nature, 2019)
Where no end group is shown, it is not given here.

T1: Thermus thermophilus multidrug resistance proteins A and B (TmrAB), wild type heterodimer (Thermus thermophilus, UniProt Q72J05;Q72J04)
T1 sequence 1: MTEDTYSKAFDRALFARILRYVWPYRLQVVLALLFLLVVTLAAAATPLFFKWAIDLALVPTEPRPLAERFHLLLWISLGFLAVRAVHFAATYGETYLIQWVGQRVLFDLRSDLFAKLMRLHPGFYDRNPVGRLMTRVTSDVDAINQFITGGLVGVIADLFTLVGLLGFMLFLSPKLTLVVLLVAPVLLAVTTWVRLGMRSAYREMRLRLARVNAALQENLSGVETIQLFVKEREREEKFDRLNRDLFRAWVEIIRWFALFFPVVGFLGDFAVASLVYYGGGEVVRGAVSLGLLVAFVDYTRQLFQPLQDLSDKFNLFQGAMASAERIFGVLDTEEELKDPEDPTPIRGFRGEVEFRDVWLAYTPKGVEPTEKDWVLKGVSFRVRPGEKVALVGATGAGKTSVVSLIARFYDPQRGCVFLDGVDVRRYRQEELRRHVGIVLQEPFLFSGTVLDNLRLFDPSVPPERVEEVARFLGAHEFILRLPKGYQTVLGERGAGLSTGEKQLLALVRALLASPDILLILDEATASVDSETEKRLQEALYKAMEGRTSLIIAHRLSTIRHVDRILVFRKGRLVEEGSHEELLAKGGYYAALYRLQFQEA
T1 sequence 2: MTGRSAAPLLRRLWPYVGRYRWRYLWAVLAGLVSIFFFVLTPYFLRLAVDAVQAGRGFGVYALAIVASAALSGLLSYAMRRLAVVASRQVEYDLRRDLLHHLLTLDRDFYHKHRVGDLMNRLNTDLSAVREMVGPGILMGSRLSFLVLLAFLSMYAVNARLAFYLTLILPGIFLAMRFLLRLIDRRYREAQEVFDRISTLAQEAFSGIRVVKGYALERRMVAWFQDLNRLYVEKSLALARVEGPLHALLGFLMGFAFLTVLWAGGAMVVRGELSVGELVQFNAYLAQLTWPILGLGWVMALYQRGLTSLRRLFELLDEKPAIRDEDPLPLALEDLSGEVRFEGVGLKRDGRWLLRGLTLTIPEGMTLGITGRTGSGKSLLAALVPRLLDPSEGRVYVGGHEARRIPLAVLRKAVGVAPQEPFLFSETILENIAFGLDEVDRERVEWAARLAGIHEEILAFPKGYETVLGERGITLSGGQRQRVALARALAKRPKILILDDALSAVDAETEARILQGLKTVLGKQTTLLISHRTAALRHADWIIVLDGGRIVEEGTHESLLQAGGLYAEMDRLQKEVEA

B1: Nb9F10, TmrAB-specific nanobody (alpaca) (VHH)
VHH: QLQLVESGGGLVQPGDSLRLSCAVSGSALDYNAIGWFRQAPGKEREGVACISKITGNTAYADSVKGRFTISRDNAKNTVHLQMNSLKPEDTAVYYCATVTAVLLPGRCVPGKYWGQGTPVTVSS
B2: fluorescent peptide RRY(C^Fluorescein)KSTEL (C4F) (peptide)
peptide: RRYC(fluorescein)KSTEL

Assays:
[1] = target: isolated nucleotide-binding domain of TmrB (NBD of TmrB) (Thermus thermophilus HB27, UniProt Q72J04); assay: SEC
[2] = target: T1, Thermus thermophilus multidrug …; assay: fluorescence polarisation

Binder | binding result [1] | binding result [2]
B1 | binds | –
B2 | – | binds
